{"source": "patent US20260226143A1", "about": "(OTHAIR PROTHENA, published 2026)", "key": {"[1]": {"target": "T1, recombinant Aβ1-42 fibrils (human)", "T1 construct": "Fibrils made from HFIP-treated Aβ1-42 (DMSO, 10 mM HCl, 37 C, 24 h; pellet resuspended and sonicated); also called fibril Aβ42; fibril Aβ", "T1 sequence (peptide, as listed by the source)": "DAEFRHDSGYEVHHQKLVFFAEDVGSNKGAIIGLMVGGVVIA", "experiment": "direct ELISA on plate-coated Aβ fibrils, antibody titrated", "experimental": "(§1) Plates were blocked 1% BSA/PBS for 1 hour. […] Plates were washed four times with TBS/Tween 20 and 100 μl of goat anti Human IgG HRP (Jackson ImmunnoResearch Laboratories, Inc, West Grove, PA or Invitrogen, Carlsbad, CA) at 1/5000 dilution was added to each well and incubated 1 hour at room temperature. Plates were wash six times in TBS/Tween 20, and Thermo Fisher o-phenylenediamine dihydrochloride (OPD) tablets and ThermoFisher substrate buffer were prepared per manufacturer's instructions. 100 μl of substrate was added and incubated 15 min. Reaction was stopped with 50 μl H₂SO₄. Plates were read at 490 nm on a molecular devices spectromax. FIG. 9A, and FIG. 21. For FIG. 21, curves and resulting EC₅₀ estimations represent nonlinear three-parameter least squares fit of the data (data shown in Table 7)."}, "[2]": {"target": "T2, aggregated Aβ42 (heterogeneous Aβ 42 aggregate mixture) (human)", "T2 construct": "Aβ 42 vortexed in water and kept on a nutator for 48 h at room temperature, then coated on plates; also called Aβ aggregates; heterogeneous aggregated Aβ42 species", "T2 sequence (peptide, as listed by the source)": "as above", "experiment": "competition ELISA, plate coated with aggregated Aβ42; competitor biotinylated hBP", "experimental": "One mg of Aβ 42 was added to 1 ml of diH2O and was vigorously vortexed and placed on a nutator for 48 hours at room temperature. Plates were coated with 0.5 mg/ml of the heterogeneous Aβ 42 aggregate mixture and blocked, e.g., with 1% BSA/PBS. […] 100 ul of GE Streptavidin HRP diluted 1/10,000 was then added and incubated for 30 minutes. Plates were washed six times with TTBS. Thermo Fisher o-phenylenediamine dihydrochloride (OPD) substrate was prepared fresh per manufacturers direction, and 100 μl per well was added. The reaction was incubated for 15 minutes and the reaction stopped with 50 ul 2N H₂SO₄. […] For FIG. 20A and FIG. 20B, curves and resulting IC₅₀ estimations represent nonlinear three-parameter least squares fit of data. Individual points are the average of triplicate samples (coefficient of variation <20%)."}, "[3]": {"target": "soluble Aβ oligomers (human, partly biotinylated (unlabeled, biotinylated or 9:1 unlabeled:biotinylated preparations))", "sequence (peptide, as listed by the source)": "as above", "experiment": "cell-based or functional assay"}, "[4]": {"target": "T1, recombinant Aβ1-42 fibrils", "experiment": "direct ELISA, fibril Abeta plate coat titrated, antibody held constant at 2 ug/ml; unit from the axis 'log ng/ml Abeta' [right panel]", "experimental": "Plates were blocked 1% BSA/PBS 1 hour. Antibodies at 2 μg/ml in 0.1% BSA/PBS 0.1% Tween 20 were added in duplicate to the appropriate wells and incubated for 2 hrs at room temperature. Plates were washed 4× with TBS/Tween 20 and then 100 μl of Jackson Goat anti Human IgG HRP 1/5000 dilution was added to each well and incubated 1 hour at room temperature. Plates were wash six times in TBS/Tween 20, and Thermo Fisher o-phenylenediamine dihydrochloride (OPD) tablets and Thermofisher substrate buffer were prepared per manufacturer's instructions. 100 μl of substrate was and incubated 15 min. Reaction was stopped with 50 μl H₂SO₄. Plates were read at 490 nm on a molecular devices spectromax. FIG. 9B, right panel."}, "[5]": {"target": "T1, recombinant Aβ1-42 fibrils", "experiment": "direct ELISA on plate-coated Aβ fibrils; the low end falls to h2831 by the EC50 values of Table 7", "experimental": "as §1"}, "[6]": {"target": "T1, recombinant Aβ1-42 fibrils", "experiment": "direct ELISA on plate-coated Aβ fibrils; the high end falls to h2726 by the EC50 values of Table 7", "experimental": "as §1"}}, "data": [{"binder": "h2731 (antibody, human IgG1, kappa, V domains shown, Heavy chain with or without the C-terminal lysine) VH: EVQLLESGGGLVQPGGSLRLSCAASGFTFSNYGMSWVRQAPGKGLEWVASIRSGSGRTYYSDNVKGRFTISRDNSKNTLYLQMNSLRAEDTAVYYCVRYDHYSGSSDYWGQGTLVTVSS VL: DVVMTQSPLSLPVTLGEPASISCKSSQSLLDYDGKTYLNWLLQKPGQSPQRLIYRVTNRDTGVPDRFSGSGSGTDFTLKISRVEAEDVGVYYCWQGTHFPRSFGQGTKVEIKR", "values": [{"measurement": "EC50", "setting": "[1]", "result": 0.0367, "unit": "µg/mL"}, {"measurement": "IC50", "setting": "[2]", "result": 5.02, "unit": "µg/mL"}, {"measurement": "IC50 of the reduction of Abeta spots per neuron (% Abeta control, normalized to untreated Abeta)", "setting": "[3]", "result": 0.47, "unit": "µg/mL"}]}, {"binder": "h2831 (antibody, V domains shown, Humanized IgG; only variable domains tied to the name; also called PB-0575) VH: EVQLLESGGGLVQPGGSLRLSCAASGFTFSNFGMSWVRQAPGKGLEWVASVRSGSGRTYYSDNVKGRFTISRDNSKNTLYLQMNSLRAEDTAVYYCVRYDHYSGTSDYWGQGTLVTVSS VL: DVVMTQSPLSLPVTLGEPASISCKSSQSLLDYDGKTYLNWLLQKPGQSPQRLIYRVTNRDTGVPDRFSGSGSGTDFTLKISRVEAEDVGVYYCWQGTHFPRSFGQGTKVEIK", "values": [{"measurement": "EC50", "setting": "[1]", "result": 0.0489, "unit": "µg/mL"}, {"measurement": "IC50 (as headed in the table; half-maximal concentration of the Abeta fibril coat)", "setting": "[4]", "result": 0.412, "unit": "µg/mL"}, {"measurement": "IC50", "setting": "[2]", "result": 9.91, "unit": "µg/mL"}, {"measurement": "fold lower estimated EC50 than aducanumab", "setting": "[5]", "result": "15 to 20", "unit": "fold"}, {"measurement": "IC50 of the reduction of Abeta spots per neuron (% Abeta control, normalized to untreated Abeta)", "setting": "[3]", "result": 0.924, "unit": "µg/mL"}, {"measurement": "Total Area (area under the curve of % Abeta control against mAb concentration)", "setting": "[3]", "result": 6500}]}, {"binder": "h2726 (antibody, V domains shown, Humanized IgG; also called PB-0573) VH: EVQLLESGGGLVQPGGSLRLSCAASGFTFSNYGMSWVRQAPGKGLEWVASIRSGSGRTYYSDNVKGRFTISRDNSKNTLYLQMNSLRAEDTAVYYCVRYDHYSGSSDYWGQGTLVTVSS VL: DVVMTQSPLSLPVTPGEPASISCKSSQSLLDYDGKTYLNWLLQKPGQSPQRLIYKVSNRDSGVPDRFSGSGSGTDFTLKISRVEAEDVGVYYCWQGTHFPRTFGQGTKVEIK", "values": [{"measurement": "EC50", "setting": "[1]", "result": 0.0359, "unit": "µg/mL"}, {"measurement": "IC50 (as headed in the table; half-maximal concentration of the Abeta fibril coat)", "setting": "[4]", "result": 0.387, "unit": "µg/mL"}, {"measurement": "IC50", "setting": "[2]", "result": 9.05, "unit": "µg/mL"}, {"measurement": "fold lower estimated EC50 than aducanumab", "setting": "[6]", "result": "15 to 20", "unit": "fold"}, {"measurement": "IC50 of the reduction of Abeta spots per neuron (% Abeta control, normalized to untreated Abeta)", "setting": "[3]", "result": 1.67, "unit": "µg/mL"}, {"measurement": "Total Area (area under the curve of % Abeta control against mAb concentration)", "setting": "[3]", "result": 9070}]}, {"binder": "h2931 (antibody, V domains shown, Humanized IgG; only variable domains tied to the name; also called PB-0576) VH: EVQLLESGGGLVQPGGSLRLSCAASGFTFSNFGMSWVRQAPGKGLEWVASVRSGSGRTYYSDNVKGRFTISRDNSKNTLYLQMNSLRAEDTAVYYCVRYDHYTGTSDYWGQGTLVTVSS VL: DVVMTQSPLSLPVTLGEPASISCKSSQSLLDYDGKTYLNWLLQKPGQSPQRLIYRVTNRDTGVPDRFSGSGSGTDFTLKISRVEAEDVGVYYCWQGTHFPRSFGQGTKVEIK", "values": [{"measurement": "EC50", "setting": "[1]", "result": 0.0449, "unit": "µg/mL"}, {"measurement": "IC50 (as headed in the table; half-maximal concentration of the Abeta fibril coat)", "setting": "[4]", "result": 0.335, "unit": "µg/mL"}, {"measurement": "IC50", "setting": "[2]", "result": 6.9, "unit": "µg/mL"}, {"measurement": "IC50 of the reduction of Abeta spots per neuron (% Abeta control, normalized to untreated Abeta)", "setting": "[3]", "result": 0.627, "unit": "µg/mL"}, {"measurement": "Total Area (area under the curve of % Abeta control against mAb concentration)", "setting": "[3]", "result": 8480}]}]}
